Paper PMC8680157

Key:
[1] = molecular target: fluorescently labelled nucleosome core particle (NCP), non-ubiquitylated (human) (UniProt P68431); assay: fluorescence polarisation
[2] = molecular target: fluorescently labelled nucleosome core particle ubiquitylated at H2A K13 and K15 (human) (UniProt P68431); assay: fluorescence polarisation

Sequence of GST-tagged BARD1 (ARD–BRCT), residues 415–777, wild type (Q99728 415-777): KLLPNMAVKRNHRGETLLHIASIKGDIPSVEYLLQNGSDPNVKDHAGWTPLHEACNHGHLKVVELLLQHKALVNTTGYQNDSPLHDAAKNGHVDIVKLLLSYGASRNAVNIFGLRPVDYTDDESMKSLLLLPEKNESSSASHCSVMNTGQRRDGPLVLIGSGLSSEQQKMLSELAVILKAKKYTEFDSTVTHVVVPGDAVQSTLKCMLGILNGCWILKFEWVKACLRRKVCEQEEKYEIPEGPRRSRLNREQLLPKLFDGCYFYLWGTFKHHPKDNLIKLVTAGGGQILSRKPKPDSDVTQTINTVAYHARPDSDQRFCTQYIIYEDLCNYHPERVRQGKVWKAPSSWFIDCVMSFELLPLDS

Kd [1] [nM] | Kd [2] [nM] | Substance
60 | 20 | BRCA1^R–BARD1^Long, BRCA1 (residues 1–100)–BARD1 (residues 26–777) (from UniProt P38398 1-100; Q99728 26-777) (enzyme)
8000 | – | BRCA1^R–BARD1^R, fusion of BRCA1 (residues 1–100) and BARD1 (residues 26–122) (from UniProt P38398 1-100; Q99728 26-122) (enzyme)
– | 200 | GST-tagged BARD1 (ARD–BRCT), residues 415–777, wild type (from UniProt Q99728 415-777) (domain or fragment)
